Molecular target: T1, MBP-BirA fusion (E. coli biotin ligase / biotin holoenzyme synthetase with N-terminal maltose binding protein) (E. coli, UniProt P0AEX9 27-392 = MBP; P06709 1-321, limits assumed)
T1 construct: also called BHS
Test: phage ELISA on plate-coated MBP-BirA, anti-M13-HRP detection

B1: non-displaying M13 phage (no insert), without selenocysteine (other, bacteriophage M13, UniProt P69168 19-424, looked up)
chain: AETVESCLAKPHTENSFTNVWKDDKTLDRYANYEGCLWNATGVVVCTGDETQCYGTWVPIGLAIPENEGGGSEGGGSEGGGSEGGGTKPPEYGDTPIPGYTYINPLDGTYPPGTEQNPANPNPSLEESQPLNTFMFQNNRFRNRQGALTVYTGTVTQGTDPVKTYYQYTPVSSKAMYDAYWNGKFRDCAFHSGFNEDPFVCEYQGQSSDLPQPPVNAGGGSGGGSGGGSEGGGSEGGGSEGGGSEGGGSGGGSGSGDFDYEKMANANKGAMTENADENALQSDAKGKLDSVATDYGAAIDGFIGDVSGLANGNGATGDFAGSNSQMAQVGDGDNSPLMNNFRQYLPSLPQSVECRPFVFSAGKPYEFSIDCDKINLFRGVFAFLLYVATFMYVFSTFANILRNKES
notes: Control; whole phage, applied both after treatment with the biotinylating reagent and untreated; also called non-displaying phage
- binding result: no binding

— patent publication US20050048548A1 (NEW ENGLAND BIOLABS, published 2005)
